US20050249746A1
“And” between values parts separate entries of the source, which are not always exact repeats. Equal values may be shown once.

Experiments:
[1] = biological target: wild-type recombinant lipoprotein P4 (rLP4) of non-typable Haemophilus influenzae (non-typable Haemophilus influenzae) (UniProt P26093); test: ELISA on coated wild-type rLP4; week 0 serum
[2] = biological target: wild-type recombinant lipoprotein P4 (rLP4) of non-typable Haemophilus influenzae (non-typable Haemophilus influenzae) (UniProt P26093); test: ELISA on coated wild-type rLP4; preimmune serum pool

pre-immune mouse serum (antibody)
Anti-rP4 ELISA titer [1]: 53 titer and 62 titer | ELISA titer [1]: 53 titer | ELISA titer [2]: 82 titer and 65 titer
